The text below walks through data of patent US20170362330A1.

The target of assay [1] is human CD46 (human), P15529. The experiment in a line: cell-based or functional assay.
Assay [2] addresses human CD46 (human) (UniProt P15529). The experiment in a line: FACS on Du-145 cells, 4 °C overnight, MFI curve fit.
Assay [3] has the same target. The experiment in a line: FACS on CHO-huCD46 cells, 4 C overnight, MFI against antibody concentration.
Assay [4] has the same target. As to the kind of experiment: FACS on CHO cells transfected with human CD46, 4 °C overnight, MFI curve fit.

Where only a bound is given, the exact number is not on record here.

Chain of human CD46 (human), P15529 (P15529 35-392): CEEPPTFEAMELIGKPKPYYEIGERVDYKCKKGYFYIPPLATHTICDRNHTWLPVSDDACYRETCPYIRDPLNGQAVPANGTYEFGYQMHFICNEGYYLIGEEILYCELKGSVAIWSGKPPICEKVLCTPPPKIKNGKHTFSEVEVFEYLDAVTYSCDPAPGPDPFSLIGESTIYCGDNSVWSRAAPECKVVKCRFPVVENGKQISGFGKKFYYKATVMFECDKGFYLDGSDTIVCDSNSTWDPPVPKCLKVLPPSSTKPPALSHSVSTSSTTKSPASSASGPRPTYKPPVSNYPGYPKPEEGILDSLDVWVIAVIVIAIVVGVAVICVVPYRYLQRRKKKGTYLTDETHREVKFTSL
Chain of human CD46 (human) (P15529 35-392): as above

B1: YS5-mcvcpab-MMAF (protein)
VH: QVQLVQSGGGVVQPGRSLRLACAASGLTVNNYAMHWVRQAPGKGLEWVAVISYDGNNKYYADSVKGRFTISRDNSKNTLYLQMNSLRAEDTAVYYCAKGGGYFDLWGRGTLVTVSS
VL: QSVLTQPPSVSGAPGQRVTISCTGSSSNIGAGYDVHWYQQLPGTAPKLLIYGNNNRPSGVPDRFSGSKSGTSASLAITGLQAEDEADYYCSSYTSGTWLFGGGTKLTVL
modifications: here or on the partner: monomethyl auristatin F (MMAF) conjugated via the MC-vc-PAB linker, on average about 3 drugs per antibody molecule; attachment residues not stated
Turning to B1, in assay [1], the EC50 of cell killing, LNCaP C4-2B cells with prior exposure to abiraterone (CD46 upregulated), 96 hours was 0.021 nM; the EC50 of cell killing, LNCaP C4-2B cells without prior exposure to abiraterone, 96 hours was 0.169 nM; the cytotoxic activity on H660 cells in vitro (Calcein AM viability, 7 days) was under 1 nM; the fold drop of killing EC50 on H660 cells after enzalutamide treatment lay within 4 to 5 fold.

B2: YS5 (antibody, V domains shown)
VH: QVQLVQSGGGVVQPGRSLRLACAASGLTVNNYAMHWVRQAPGKGLEWVAVISYDGNNKYYADSVKGRFTISRDNSKNTLYLQMNSLRAEDTAVYYCAKGGGYFDLWGRGTLVTVSS
VL: QSVLTQPPSVSGAPGQRVTISCTGSSSNIGAGYDVHWYQQLPGTAPKLLIYGNNNRPSGVPDRFSGSKSGTSASLAITGLQAEDEADYYCSSYTSGTWLFGGGTKLTVL
With B2, the Kd with human CD46 (human) [2] was 2.19 nM; in the assay with human CD46 (human) [4], 0.867 nM. Further, the EC50 (read off the curve) in the assay with human CD46 (human) [3] stood at 1 nM.

B3: YS12 (antibody, V domains shown)
VH: QVQLVESGGGVVQPGRSLRLSCAASGFTFSTYGMHWVRQAPGKGLEWLSFISYDGDEKYYADSVKGRFTISRDNSKNTLYLQMNSLRAEDTAVYWCAKASGYGMGILDYWGQGTLVTVSS
VL: SSELTQDPAVSVALGQTVRITCQGDSLRSYYVSWFQQKPGQAPVFVMYGQNNRPSGISERFSGSSSGNTASLIITGAQAEDEADYYCHSRDSSGTHLRVFGGGTKLTVL
Consider B3, for which the Kd with human CD46 (human) [2] was 0.043 nM.
